Assay results published in article PMC4646805 (Science Advances, 2015).
Where two headings read alike, the source gives them in different places.

Legend:
[1] = biological target: T1, rabbit skeletal muscle actin, pyrene-labelled, phalloidin-stabilized (rabbit, UniProt P68135 1-377, pyrene (labelled with pyrene-maleimide)); test: other fluorescence titration
[2] = biological target: T1, rabbit skeletal muscle actin, …; test: other fluorescence titration; remark: listed apart in the source

Kd [1] [nM] | Kd [2] [nM] | Binder
10 ± 1.8 | 23.4 ± 2.5 | wild-type human β-cardiac myosin short subfragment 1 (sS1) with C-terminal 6× His tag (complex) chain 1: MGDSEMAVFGAAAPYLRKSEKERLEAQTRPFDLKKDVFVPDDKQEFVKAKIVSREGGKVTAETEYGKTVTVKEDQVMQQNPPKFDKIEDMAMLTFLHEPAVLYNLKDRYGSWMIYTYSGLFCVTVNPYKWLPVYTPEVVAAYRGKKRSEAPPHIFSISDNAYQYMLTDRENQSILITGESGAGKTVNTKRVIQYFAVIAAIGDRSKKDQSPGKGTLEDQIIQANPALEAFGNAKTVRNDNSSRFGKFIRIHFGATGKLASADIETYLLEKSRVIFQLKAERDYHIFYQILSNKKPELLDMLLITNNPYDYAFISQGETTVASIDDAEELMATDNAFDVLGFTSEEKNSMYKLTGAIMHFGNMKFKLKQREEQAEPDGTEEADKSAYLMGLNSADLLKGLCHPRVKVGNEYVTKGQNVQQVIYATGALAKAVYERMFNWMVTRINATLETKQPRQYFIGVLDIAGFEIFDFNSFEQLCINFTNEKLQQFFNHHMFVLEQEEYKKEGIEWTFIDFGMDLQACIDLIEKPMGIMSILEEECMFPKATDMTFKAKLFDNHLGKSANFQKPRNIKGKPEAHFSLIHYAGIVDYNIIGWLQKNKDPLNETVVGLYQKSSLKLLSTLFANYAGADAPIEKGKGKAKKGSSFQTVSALHRENLNKLMTNLRSTHPHFVRCIIPNETKSPGVMDNPLVMHQLRCNGVLEGIRICRKGFPNRILYGDFRQRYRILNPAAIPEGQFIDSRKGAEKLLSSLDIDHNQYKFGHTKVFFKAGLLGLLEEMRDERLSRIITRIQAQSRGVLARMEYKKLLERR chain 2: not shown
19.7 ± 6.2 | 63.2 ± 16.7 | R403Q human β-cardiac myosin short subfragment 1 (sS1) with C-terminal 6× His tag (complex) chain 1: MGDSEMAVFGAAAPYLRKSEKERLEAQTRPFDLKKDVFVPDDKQEFVKAKIVSREGGKVTAETEYGKTVTVKEDQVMQQNPPKFDKIEDMAMLTFLHEPAVLYNLKDRYGSWMIYTYSGLFCVTVNPYKWLPVYTPEVVAAYRGKKRSEAPPHIFSISDNAYQYMLTDRENQSILITGESGAGKTVNTKRVIQYFAVIAAIGDRSKKDQSPGKGTLEDQIIQANPALEAFGNAKTVRNDNSSRFGKFIRIHFGATGKLASADIETYLLEKSRVIFQLKAERDYHIFYQILSNKKPELLDMLLITNNPYDYAFISQGETTVASIDDAEELMATDNAFDVLGFTSEEKNSMYKLTGAIMHFGNMKFKLKQREEQAEPDGTEEADKSAYLMGLNSADLLKGLCHPQVKVGNEYVTKGQNVQQVIYATGALAKAVYERMFNWMVTRINATLETKQPRQYFIGVLDIAGFEIFDFNSFEQLCINFTNEKLQQFFNHHMFVLEQEEYKKEGIEWTFIDFGMDLQACIDLIEKPMGIMSILEEECMFPKATDMTFKAKLFDNHLGKSANFQKPRNIKGKPEAHFSLIHYAGIVDYNIIGWLQKNKDPLNETVVGLYQKSSLKLLSTLFANYAGADAPIEKGKGKAKKGSSFQTVSALHRENLNKLMTNLRSTHPHFVRCIIPNETKSPGVMDNPLVMHQLRCNGVLEGIRICRKGFPNRILYGDFRQRYRILNPAAIPEGQFIDSRKGAEKLLSSLDIDHNQYKFGHTKVFFKAGLLGLLEEMRDERLSRIITRIQAQSRGVLARMEYKKLLERR chain 2: not shown
